Laboratory results published in article PMC6543031.

Biological target: N-tagged HA-SadB protein (Pseudomonas fluorescens F113)
Assay: SEC; gel filtration of HA-SadB, in the presence or absence of c-di-GMP; data not shown

stoichiometry N: 2
Substance: N-tagged HA-SadB protein (natural protein)
